The values below come from patent US20260137822A1 (ABDERA THERAPEUTICS, published 2026).

The EC50 (read off the curve) is the concentration at which the effect is half-maximal. A lower EC50 (read off the curve) goes with greater potency. Usually koff stands for the first-order rate constant of dissociation. For orientation: kon means the rate constant with which the complex forms. For orientation: Kd means the equilibrium constant for the complex coming apart. In general, EC50 refers to the concentration needed to bring the measured effect to its halfway point. Low values mean greater potency, high ones weaker potency.

In assay [1] the target is T1, FOLR1 on cells (OVCAR3, OV-90) (UniProt P15328 25-234).
T1 construct: whole, on cells; also called FOLR1-positive OVCAR3 cells; FOLR1 expressing OV-90 cells
T1 sequence (P15328 25-234): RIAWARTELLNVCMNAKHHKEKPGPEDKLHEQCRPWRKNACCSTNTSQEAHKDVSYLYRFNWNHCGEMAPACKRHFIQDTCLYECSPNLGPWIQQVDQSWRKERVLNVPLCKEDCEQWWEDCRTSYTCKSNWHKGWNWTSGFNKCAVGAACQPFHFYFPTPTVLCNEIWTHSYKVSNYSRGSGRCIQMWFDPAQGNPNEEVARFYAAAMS
The experiment in a line: flow cytometry on FOLR1 expressing OV-90 cells, Geomeans RL1-H against Conc (nM) [bottom panel].

The target of assay [2] is T1, FOLR1 on cells (OVCAR3, OV-90). Briefly: flow cytometry on FOLR1 expressing OV-90 cells, Geomeans RL1-H against Conc (nM) [top panel].
Assay [3] concerns the target T2, mouse DLL3 (recombinant antigen) (mouse, UniProt O88516 25-477, limits assumed).
T2 construct: also called mDLL3
T2 sequence (looked up): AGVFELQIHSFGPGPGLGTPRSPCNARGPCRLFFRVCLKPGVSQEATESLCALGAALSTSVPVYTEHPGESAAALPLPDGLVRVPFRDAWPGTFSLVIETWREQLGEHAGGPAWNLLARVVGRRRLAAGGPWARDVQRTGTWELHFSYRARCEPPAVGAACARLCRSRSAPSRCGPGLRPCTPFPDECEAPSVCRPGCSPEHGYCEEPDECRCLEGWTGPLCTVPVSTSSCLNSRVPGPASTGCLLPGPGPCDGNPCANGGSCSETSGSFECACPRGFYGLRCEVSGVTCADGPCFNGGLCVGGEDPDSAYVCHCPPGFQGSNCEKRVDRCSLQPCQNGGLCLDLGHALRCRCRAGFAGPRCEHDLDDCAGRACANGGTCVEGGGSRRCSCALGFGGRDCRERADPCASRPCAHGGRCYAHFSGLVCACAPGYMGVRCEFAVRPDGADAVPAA
Briefly: BLI (Octet), VHH-Fc captured on AHC biosensor, mDLL3 as analyte.

Assay [4] deals with T3, mouse FOLR1 (recombinant antigen) (mouse, UniProt P35846 25-232, limits assumed).
T3 construct: also called mFOLR1
T3 sequence (P35846 25-232 limits assumed): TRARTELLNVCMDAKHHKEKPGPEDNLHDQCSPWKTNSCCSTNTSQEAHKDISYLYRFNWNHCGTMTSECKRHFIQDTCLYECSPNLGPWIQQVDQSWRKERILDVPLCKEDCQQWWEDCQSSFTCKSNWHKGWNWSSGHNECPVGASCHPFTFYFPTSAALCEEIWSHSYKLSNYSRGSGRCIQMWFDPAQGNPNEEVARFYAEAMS
Briefly: ELISA on mFOLR1. For orientation: ELISA stands for enzyme-linked immunosorbent assay.

The target of assay [5] is T4, human FOLR1 (recombinant antigen) (human, UniProt P15328 25-234, limits assumed).
T4 construct: also called hFOLR1
T4 sequence (P15328 25-234 limits assumed): as the sequence (P15328 25-234) above
Briefly: ELISA on hFOLR1.

Assay [6] addresses T5, human DLL3 (recombinant antigen) (human, UniProt Q9NYJ7 27-492, limits assumed).
T5 construct: also called hDLL3
T5 sequence (looked up): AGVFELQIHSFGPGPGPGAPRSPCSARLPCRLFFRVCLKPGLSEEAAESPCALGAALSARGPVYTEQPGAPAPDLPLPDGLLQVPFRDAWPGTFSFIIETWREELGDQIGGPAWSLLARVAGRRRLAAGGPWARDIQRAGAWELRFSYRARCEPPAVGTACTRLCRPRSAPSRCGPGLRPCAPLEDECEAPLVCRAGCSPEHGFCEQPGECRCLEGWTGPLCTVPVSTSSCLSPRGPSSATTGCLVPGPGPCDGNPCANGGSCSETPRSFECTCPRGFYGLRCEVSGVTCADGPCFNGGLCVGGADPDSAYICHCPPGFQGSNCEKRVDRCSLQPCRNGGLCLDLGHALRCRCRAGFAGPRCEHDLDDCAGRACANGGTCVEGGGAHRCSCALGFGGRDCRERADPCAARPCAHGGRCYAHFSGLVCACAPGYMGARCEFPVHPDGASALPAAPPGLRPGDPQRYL
Briefly: BLI (Octet), VHH-Fc captured on AHC biosensor, hDLL3 as analyte. A general note: BLI is a label-free optical method that tracks binding on a fibre tip over time.

Assay [7] addresses T6, DLL3 on cells (SHP-77, NCI-H82, HEK-DLL3) (UniProt Q9NYJ7 27-618).
T6 construct: whole, on cells; also called DLL3-positive cell lines
T6 sequence (looked up): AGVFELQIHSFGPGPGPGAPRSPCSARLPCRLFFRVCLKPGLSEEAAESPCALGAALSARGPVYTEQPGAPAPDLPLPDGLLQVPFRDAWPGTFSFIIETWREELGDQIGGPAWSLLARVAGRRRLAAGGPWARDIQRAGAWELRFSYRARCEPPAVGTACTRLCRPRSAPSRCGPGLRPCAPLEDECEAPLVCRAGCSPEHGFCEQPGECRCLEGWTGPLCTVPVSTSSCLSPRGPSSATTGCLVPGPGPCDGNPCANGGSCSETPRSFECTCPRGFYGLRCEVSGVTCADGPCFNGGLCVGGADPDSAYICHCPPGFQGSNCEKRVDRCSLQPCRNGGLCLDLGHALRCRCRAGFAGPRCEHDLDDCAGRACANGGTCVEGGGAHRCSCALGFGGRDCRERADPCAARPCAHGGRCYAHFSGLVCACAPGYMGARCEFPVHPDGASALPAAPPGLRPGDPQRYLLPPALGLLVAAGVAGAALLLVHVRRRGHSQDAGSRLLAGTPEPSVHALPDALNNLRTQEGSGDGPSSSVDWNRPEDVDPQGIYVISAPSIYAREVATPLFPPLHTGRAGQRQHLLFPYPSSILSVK
Briefly: flow cytometry, SHP-77 cells. In general terms: In flow cytometry, cells or beads pass a laser one at a time.

The target of assay [8] is T7, human DLL3.FLAG (Adipogen #AG-40B-0151, amino acid 27-466) (human, UniProt Q9NYJ7 27-466).
T7 construct: range 27-466; Carries a FLAG tag
T7 sequence (looked up): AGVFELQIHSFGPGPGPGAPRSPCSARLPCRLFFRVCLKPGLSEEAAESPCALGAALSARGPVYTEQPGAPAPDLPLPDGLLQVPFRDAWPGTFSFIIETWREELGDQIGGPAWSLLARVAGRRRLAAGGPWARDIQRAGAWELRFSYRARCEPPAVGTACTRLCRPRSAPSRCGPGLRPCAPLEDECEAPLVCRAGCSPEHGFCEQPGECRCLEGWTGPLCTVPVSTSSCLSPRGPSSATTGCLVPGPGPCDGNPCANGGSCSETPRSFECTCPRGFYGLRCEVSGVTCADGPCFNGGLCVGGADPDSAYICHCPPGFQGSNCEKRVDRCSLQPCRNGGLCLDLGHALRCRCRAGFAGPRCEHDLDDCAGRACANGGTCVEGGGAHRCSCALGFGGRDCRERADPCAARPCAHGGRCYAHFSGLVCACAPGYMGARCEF
The experiment in a line: ELISA on coated hDLL3-Flag, A450nm against nM antibody.

The target of assay [9] is T6, DLL3 on cells (SHP-77, NCI-H82, …). Briefly: flow cytometry on SHP-77 cells (DLL3-positive), MFI against nM antibody.
The target is the same in assay [10]. The experiment in a line: flow cytometry, HEK-DLL3 cells.

B1: bispecific anti-h/mFOLR1/h/mDLL3 (GGS)3 tetramer, p-SCN-Bn-DOTA conjugate (bispecific antibody)
chain (part 1 of 2): QVQLVESGGGLVQPGGSLRLSCAASGFTVSNSVMAWYRQTPGNEREFVAIINSIGITNYADSVKGRFTISRDNSKNTLYLQMNSLRAEDTAVYVCNRNFDRIYWGQGTLVTVSSGGSGGSGGSEVQLVESGGGEVQPGGSLRLSCAASGSIFSINAMGWYRQAPGKQRELVAGFTGDTNTIYAESVKGRFTISRDNAKNTVYLQMSSLRAEDTAVYYCAADVQLFSRDYEFYWGQGTLVTVKP
chain (part 2 of 2): not shown
modifications: conjugated with p-SCN-Bn-DOTA
notes: Chelator conjugate of m63; not shown: hinge
B1: the “EC50 (read off the curve)” value in assay [1] was roughly 3 nM.

B2: DLL3 VHH (VHH-Fc control) (Fc fusion, not shown: a dimerising Fc or GST)
chain: EVQLVESGGGEVQPGGSLRLSCAASGSIFSINAMGWYRQAPGKQRELVAGFTGDTNTIYAESVKGRFTISRDNAKNTVYLQMSSLRAEDTAVYYCAADVQLFSRDYEFYWGQGTLVTVKP
Consider B2, for which the binding result is given as “no binding (tested: 200 nM)” in assay [2], “no binding” in assay [4] and “no binding” in assay [5]. Further, the off-rate constant (koff) in assay [3] was found to be 0.000267 s⁻¹; in assay [6], 0.000379 s⁻¹. Besides, the kon in assay [3] worked out at 215000 M⁻¹ s⁻¹; in [6], 166000 M⁻¹ s⁻¹. Also, in assay [6], the Kd is 2.29 nM.

B3: Rovalpituzumab (Creative Biolabs #TAB-216CL) (antibody, V domains shown)
VH: QVQLVQSGAEVKKPGASVKVSCKASGYTFTNYGMNWVRQAPGQGLEWMGWINTYTGEPTYADDFKGRVTMTTDTSTSTAYMELRSLRSDDTAVYYCARIGDSSPSDYWGQGTLVTVSS
VL: EIVMTQSPATLSVSPGERATLSCKASQSVSNDVVWYQQKPGQAPRLLIYYASNRYTGIPARFSGSGSGTEFTLTISSLQSEDFAVYYCQQDYTSPWTFGQGTKLEIK
B3: the 50% effective concentration (EC50) came to 0.11 nM in assay [7] and 0.06 nM in [10]. Moreover, the entries for the “EC50 (read off the curve)” value in [8] and in assay [9] were roughly 0.09 nM and roughly 0.1 nM, respectively.
